Laboratory results from US20020102709A1.

Columns and labels:
[1] = target: bovine serum albumin (BSA, Sigma) (bovine) (UniProt P02769); assay: ELISA, serum albumin coated, FNCBD-EGF (concentration not given), detection with anti-FNCBD monoclonal antibody
[2] = target: bovine serum albumin (BSA, Sigma) (bovine) (UniProt P02769); assay: ELISA, serum albumin coated, 0.1 µg/ml FNCBD-FGF, detection with anti-FNCBD monoclonal antibody

Sequence of UniProt P02769 (P02769 25-607 limits assumed): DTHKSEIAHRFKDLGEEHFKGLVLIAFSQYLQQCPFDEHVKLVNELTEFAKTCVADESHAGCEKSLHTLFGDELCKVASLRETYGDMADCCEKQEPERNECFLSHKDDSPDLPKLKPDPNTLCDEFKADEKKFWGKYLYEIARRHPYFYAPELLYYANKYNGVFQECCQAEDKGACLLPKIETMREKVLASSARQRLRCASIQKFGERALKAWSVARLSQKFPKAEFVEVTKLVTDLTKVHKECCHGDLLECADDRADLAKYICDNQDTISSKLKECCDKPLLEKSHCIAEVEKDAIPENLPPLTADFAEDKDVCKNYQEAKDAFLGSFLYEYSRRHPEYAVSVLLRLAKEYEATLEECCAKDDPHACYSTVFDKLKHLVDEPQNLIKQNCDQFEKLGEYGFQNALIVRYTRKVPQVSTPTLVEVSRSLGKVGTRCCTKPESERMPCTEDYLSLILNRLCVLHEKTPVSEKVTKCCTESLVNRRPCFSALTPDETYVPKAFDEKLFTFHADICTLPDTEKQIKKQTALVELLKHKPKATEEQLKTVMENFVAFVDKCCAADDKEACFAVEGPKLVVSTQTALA

Row | absorption at 492 nm (absorption (492 nm)) [1] | absorption at 492 nm (absorption (492 nm)) [2] | Substance
1 | 0.11 | – | human FNCBD/human EGF hybrid polypeptide (FNCBD-EGF)
2 | – | 0.27 | human FNCBD/human bFGF hybrid polypeptide (FNCBD-FGF)
